Assay results taken from patent US12390491B2, “Compositions and methods for providing chemoprotective effects” (GTECH BIO LLC, priority 2020, dated 2025).

B1: GCLM: Heterologous human glutamate-cysteine ligase modifier subunit (SEQ ID NO: 1) overexpressed in cells via lentiviral vector co-expressing GFP (protein)
chain: MGTDSRAAKALLARARTLHLQTGNLLNWGRLRKKCPSTHSEELHDCIQKTLNEWSSQINPDLVREFPDVLECTVSHAVEKINPDEREEMKVSAKLFIVESNSSSSTRSAVDMACSVLGVAQLDSVIIASPPIEDGVNLSLEHLQPYWEELENLVQSKKIVAIGTSDLDKTQLEQLYQWAQVKPNSNQVNLASCCVMPPDLTAFAKQFDIQLLTHNDPKELLSEASFQEALQESIPDIQAHEWVPLWLLRYSVIVKSRGIIKSKGYILQAKRRGS

What was measured:
Type in all cases: cell-based
CEM cells [1] = assay: GSH level by fluorometric assay, untransduced vs GCLM-transduced cells, pre- and post-busulfan exposure
Protocol: (§1) Jurkat, CEM, and Tf-1a cell lines were transduced with a lentiviral vector that expresses GCLM and green fluorescent protein (GFP) genes. Chemoprotection experiments were performed by incubating untransduced or mixed populations of (20% transduced, 80% untransduced) cells with busulfan in concentrations ranging from 0 to 200 μg/ml for 1, 2 or 4 hours. Cells were then incubated in busulfan-free culture for 24, 48, 72 and 96 h. Area under the concentration-time curve (AUC) was estimated by using trapezoidal rule from different times and concentrations of incubation. Pre- and post-exposure GSH levels were measured with fluorometric assays. Cell survival and proliferation at different time-points were measured by Nucleocounter NC-200 and flow cytometry using PI and 7-AAD staining protocols. The chemoselection of protected GFP+ cells were evaluated by flow cytometry. Baseline GSH levels and GCLM expression were also measured in primary human HSPCs harvested from 3 different donors with fluorometric and RT-PCR assays.
(§2) The Cells are incubated with busulfan (0, 1, 2, 4, 6, 8, 10, 20, 40, 60, 80, 100 and 200 μg/ml) in serum-free media (RPMI) for 1, 2 and 4 hours. The cells were then washed with ice-cold buffer (PBS+0.5% HSA+0.1% glucose). The washed cells were cultured in RPMI+20% FBS. 24, 48, 72, and 96 h time-point measurements were done.
(§3) Jurkat, CEM, and TF-1a cell lines were transduced with a lentiviral vector that expresses GCLM and green fluorescent protein (GFP) genes (FIG. 2A). Chemoprotection experiments were performed by incubating untransduced or mixed populations of (20% transduced, 80% untransduced) cells with busulfan in concentrations ranging from low (2 to 10 ug/ml) to moderate and high (10 to 200 ug/ml) for 1 or 2 hours. Cells were then incubated and viable cell counts were documented in busulfan-free culture for the 24, 48, 72 and 96-hr timepoints (FIG. 2B). Pre- and post-transduction, and post-exposure GSH levels were measured with fluorometric assays by FACS analysis. Cell survival and proliferation were measured daily by Nucleocounter NC-200 and flow cytometry using PI and 7-AAD staining protocols. The chemo selection of protected GFP-positive cells were evaluated by flow cytometry.

CEM cells [2] = assay: Chemoprotection experiment: busulfan exposure, then viable cell count and proliferation in busulfan-free culture; conditions: for expansion of viable transduced cells: CEM cells; for fold expansion in viable transduced cells: at 72 h
Protocol: as §1, §2, §3

[3] = tested on: Jurkat, CEM and TF-1a cells; assay: Cell survival and proliferation (Nucleocounter NC-200, flow cytometry with PI and 7-AAD)
Protocol: as §1, with “RT-PCR assays. […]” for “RT-PCR assays.”
(§4) Jurkat, CEM, and TF-1a cell lines were transduced with a lentiviral vector that expresses GCLM and green fluorescent protein (GFP) genes (FIG. 2A). […] Pre- and post-transduction, and post-exposure GSH levels were measured with fluorometric assays by FACS analysis. […] The chemo selection of protected GFP-positive cells were evaluated by flow cytometry.

Jurkat cells = assay: GSH level by fluorometric assay, untransduced vs GCLM-transduced cells; conditions: lentiviral GCLM/GFP transduction
Protocol: as §1, §4

TF-1a cells = assay: as above; conditions: lentiviral GCLM/GFP transduction
Protocol: as §1, §4

CEM cells [4] = assay: Chemoselection of protected GFP+ cells by flow cytometry in mixed populations (20% transduced, 80% untransduced)
Protocol: as §1, §2, §3

Molecule | GSH in untransduced cells after busulfan exposure (CEM cells [1]; untransduced cells) | sensitivity of untransduced cells to busulfan exposure (CEM cells [2]; untransduced CEM cells compared with Jurkat and TF-1a) | survival of untransduced cells after busulfan (CEM cells [2]; untransduced CEM cells, higher doses (10 and 20 μg/ml), by 96 hours) | dependence of cell death and proliferation on busulfan exposure ([3]; all cell cultures, AUC estimated by trapezoidal rule) | GSH level change between untransduced and transduced cells (Jurkat cells) | GSH level change between untransduced and transduced cells (TF-1a cells) | GSH level in transduced cells relative to untransduced cells after busulfan (CEM cells [1]; CEM cells, different dose and time, 24-hr post busulfan exposure) | GSH level change between untransduced and transduced cells (CEM cells [1]; CEM cells, lentiviral GCLM/GFP transduction) | GSH levels in transduced cells throughout the experiment (CEM cells [1]; transduced cells, after busulfan exposure) | expansion of viable transduced cells (CEM cells [2]; 10 μg/ml busulfan, by 96 hours) | expansion of viable transduced cells (CEM cells [2]; 20 μg/ml busulfan, by 96 hours) | protection (proliferation rate) against busulfan (CEM cells [2]; GCLM-transduced CEM cells, lower doses of busulfan) | fold expansion in viable transduced cells (CEM cells [2]; busulfan-exposed transduced cells) | fold expansion in viable transduced cells (CEM cells [2]; untreated (no busulfan) transduced control) | purity of transduced CEM cells (CEM cells [4]; 72 h of culture after 10 ug/ml busulfan for 1 h, starting from 20%) | transduced cell population (CEM cells [4]; CEM cells, 10 or 20 μg/ml busulfan, 1-hr or 2-hr exposure, by 96 hours, from 20% initial) | viable transduced cell count (CEM cells [4]; CEM cells, 72 h of culture after 10 ug/ml busulfan for 1 h, starting from 30×10^3/ml) | transduced cells as share of the cultures (CEM cells [4]; busulfan doses higher than 10 ug/ml or exposure longer than 1 h, after 72 h) | transduced cell population (CEM cells [4]; moderate levels of busulfan exposure, in 72-96 h) | effect of GCLM overexpression on cell viability and proliferation ([3]; Jurkat, CEM and TF-1a cells, no busulfan)
CS(=O)(=O)OCCCCOS(C)(=O)=O [busulfan, reference compound] | depleted | most sensitive | all dead | AUC-dependent | – | – | – | – | – | – | – | – | – | – | – | – | – | – | – | –
B1 | – | – | – | – | 2.1 fold | 1.9 fold | at least 3.5 fold | 1.7 fold | remained stable | 5 fold | 3 fold | at least 3.5 fold | 2.8 fold | 3.2 fold | 88% | 100% | 84000 mL⁻¹ | 100% | 100% | no effect
